Assay results taken from patent US20170015742A1 (published 2017).
Substitutions are numbered along the chain they refer to.

Legend:
[1] = biological target: T1, recombinant human PDGF-BB (human, UniProt P01127 82-190, biotin-labelled in the binding and competition ELISAs (sites not given)); experiment: cell-based or functional assay
recombinant rat PDGF-BB = recombinant rat PDGF-BB (rat, UniProt Q05028 74-182); experiment: cell-based or functional assay
[2] = biological target: T1, recombinant human PDGF-BB; experiment: receptor competition ELISA: antibody pre-incubated with biotin-hPDGF-BB, binding to coated hPDGF-Rβ-Fc
Protocol: (§1) Plates were then washed four times with wash buffer (TBS, 0.05% Tween-20) and blocked with Superblock blocking buffer (Thermo Scientific, cat#37535). During the blocking step, supernatants, antibodies, benchmark compounds or DVD-Ig were diluted in assay diluent (10% Superblock containing 0.05% surfactamps) and an eight point titration of each sample molecule was performed. […] Following incubation, plates were washed four times with wash buffer. Detection reagent Streptavidin-polyHRP-40 (Fitzgerald, cat#65r-s104phrp) was diluted in assay diluent and added to plates (50 μL) for 45 minutes at 25° C. with shaking. Plates were washed four times with wash buffer and developed with the addition of Enhanced K-blue TMB substrate (Neogen, cat#308177). The reaction was stopped with 2N sulfuric acid (VWR, cat# BDH3500-1) and the absorbance was read at 450 nm-570 nm. […] Data was analyzed using Softmax Pro 4.8 software and IC₅₀ values calculated using a sigmoidal dose response (variable slope) fit in GraphPad Prism 5.

[3] = biological target: T1, recombinant human PDGF-BB; experiment: direct binding ELISA, biotin-hPDGF-BB on neutravidin plates, antibody titrated
Protocol: Plates were then washed four times with wash buffer (TBS, 0.05% Tween-20). The sample molecule titration was added to the coated plate at 50 μL in duplicate and incubated for one hour at 25° C. with shaking. Following incubation, plates were washed four times with wash buffer. The appropriate anti-species-IgG HRP conjugate was in assay diluent (10% Superblock containing 0.05% surfactamps) and added to plates (50 μL) for one hour at 25° C. with shaking. Plates were washed four times with wash buffer and developed with the addition of Enhanced K-blue TMB substrate (Neogen, cat#308177). The reaction was stopped with 2N sulfuric acid (VWR, cat# BDH3500-1) and the absorbance was read at 450 nm-570 nm. […] Data was analyzed using Softmax Pro 4.8 software and IC₅₀ values calculated using a sigmoidal dose response (variable slope) fit in GraphPad Prism 5.

[4] = biological target: T1, recombinant human PDGF-BB; experiment: Biacore SPR, antibody captured by anti-human Fc, PDGF-BB injected
Protocol: For example, approximately 9000 RU of goat anti-human Fc specific polyclonal antibody (Thermo Fisher Scientific Inc., Rockford, Ill.) diluted in 10 mM sodium acetate (pH 4.5) is directly immobilized across a CM5 research grade biosensor chip using a standard amine coupling kit according to manufacturer's instructions and procedures at 25 μg/ml. Unreacted moieties on the biosensor surface were blocked with ethanolamine. For kinetic analysis, rate equations derived from the 1:1 Langmuir binding model were fitted simultaneously to multiple antigen injections (using global fit analysis) with the use of Scrubber 2 (BioLogic Software), Biacore Biaevaluation 4.0.1 software or Biacore T100 Evaluation software. Purified antibodies or DVD-Ig molecules were diluted in running buffer for capture across goat anti-human Fc reaction surfaces. Antibodies or DVD-Ig molecules to be captured as a ligand (1 μg/ml) were injected over reaction matrices at a flow rate of 10 μl/minute. During the assay, all measurements were referenced against the capture surface alone (i.e., with no captured antibody or DVD-Ig molecule). […] The equilibrium dissociation constant KD (M) of the reaction between antibodies and the target antigen was then calculated from the kinetic rate constants by the following formula: KD=Koff/Kₒₙ. Binding was recorded as a function of time and kinetic rate constants were calculated.

[5] = biological target: T2, VEGF-A (recombinant; human VEGF-A 165) (human, UniProt P15692 207-395); experiment: Biacore SPR; binding protein captured on goat anti-human Fc, antigen injected (Example 1.1)
T2 construct: also called hVEGF165
T2 sequence (P15692 other isoform, or with tags, fused parts or gaps limits assumed): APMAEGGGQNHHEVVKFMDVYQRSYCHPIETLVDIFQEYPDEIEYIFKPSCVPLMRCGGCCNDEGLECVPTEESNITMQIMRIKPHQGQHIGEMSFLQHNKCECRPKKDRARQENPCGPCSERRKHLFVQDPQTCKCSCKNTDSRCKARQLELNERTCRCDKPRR

[6] = biological target: T3, PDGF-BB (recombinant; human PDGF-BB) (human, UniProt P01127 82-190, limits assumed); experiment: as above
T3 construct: PDGF-BB is a homodimer of two B chains; also called hPDGF-BB
T3 sequence (P01127 82-190 limits assumed): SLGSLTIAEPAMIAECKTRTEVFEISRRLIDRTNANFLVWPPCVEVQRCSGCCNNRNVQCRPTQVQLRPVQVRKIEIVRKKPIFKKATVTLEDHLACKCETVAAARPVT

[7] = biological target: T4, recombinant human PDGF-BB (human, UniProt P01127 82-190); experiment: cell-based or functional assay
T4 sequence (P01127 82-190 limits assumed): as above

[8] = biological target: T4, recombinant human PDGF-BB; experiment: competition ELISA: antibody pre-incubated with hPDGF-BB-biotin, then added to coated hPDGF-Rβ-Fc (competitor)
Protocol: as §1

[9] = biological target: T5, recombinant human PDGF-Rβ-Fc (human, UniProt P09619 33-530); experiment: competition ELISA: antibody added to coated hPDGF-Rβ-Fc, then hPDGF-BB-biotin (competitor)
T5 construct: also called hPDGFRβ-Fc; hPDGF-Rβ; not shown: Fc part of the bought fusion protein
T5 sequence (P09619 33-530 limits assumed): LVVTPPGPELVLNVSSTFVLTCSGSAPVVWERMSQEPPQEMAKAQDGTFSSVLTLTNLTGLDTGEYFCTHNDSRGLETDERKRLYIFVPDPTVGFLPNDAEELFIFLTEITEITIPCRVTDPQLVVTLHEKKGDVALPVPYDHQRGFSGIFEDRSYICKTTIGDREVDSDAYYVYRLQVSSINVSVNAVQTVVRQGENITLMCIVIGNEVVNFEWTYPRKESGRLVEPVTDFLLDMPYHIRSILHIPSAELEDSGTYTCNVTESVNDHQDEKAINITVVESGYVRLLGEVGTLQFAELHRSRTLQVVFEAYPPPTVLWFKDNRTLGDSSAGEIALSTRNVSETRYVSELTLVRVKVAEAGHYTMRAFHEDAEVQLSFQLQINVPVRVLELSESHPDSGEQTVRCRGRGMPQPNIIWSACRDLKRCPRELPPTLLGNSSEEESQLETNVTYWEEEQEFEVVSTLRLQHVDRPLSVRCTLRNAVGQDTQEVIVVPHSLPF
Protocol: Plates were then washed four times with wash buffer (TBS, 0.05% Tween-20) and blocked with Superblock blocking buffer (Thermo Scientific, cat#37535). During the blocking step, supernatants, antibodies and benchmark compounds were diluted in assay diluent (10% Superblock containing 0.05% surfactamps) and an eight point titration of each sample molecule was performed. The samples were added to wells and incubated for 30 minutes at 25° C. with shaking. […] This was added to wells (10 ng/mL/3.97E-10 M final concentration) and incubation was continued for 35 minutes at 25° C. with shaking. Following incubation, plates were washed four times with wash buffer. Detection reagent Streptavidin-polyHRP-40 (Fitzgerald, cat#65r-s104phrp) was diluted in assay diluent and added to plates (50 μL) for 45 minutes at 25° C. with shaking. Plates were washed four times with wash buffer and developed with the addition of Enhanced K-blue TMB substrate (Neogen, cat#308177). The reaction was stopped with 2N sulfuric acid (VWR, cat# BDH3500-1) and the absorbance was read at 450 nm-570 nm. […] Data was analyzed using Softmax Pro 4.8 software and IC₅₀ values calculated using a sigmoidal dose response (variable slope) fit in GraphPad Prism 5.

T1 sequence (P01127 82-190 limits assumed): as the sequence (P01127 82-190 limits assumed) above
recombinant rat PDGF-BB, sequence (Q05028 74-182 limits assumed): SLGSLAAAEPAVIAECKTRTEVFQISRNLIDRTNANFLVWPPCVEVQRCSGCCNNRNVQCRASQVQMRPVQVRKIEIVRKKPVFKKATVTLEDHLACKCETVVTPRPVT

B1: chBDI-9E8 (antibody, V domains shown)
VH: QVTLKESGPGILQPSQTLSLTCTFSGFSLSTYGMGVGWIRQPSGKGLEWLANIWWDDDKYYNPSLKNRLTISKDTSNNQAFLKITNVDTADTATYYCARIESIGTTYSFDYWGQGVMVTVSS
VL: QFTLTQPKSVSGSLRSTITIPCERSSGDIGDSYVSWYQQHLGRPPINVIYADDQRPSEVSDRFSGSIDSSSNSASLTITNLQMDDEADYFCQSYDINIDIVFGGGTKLTVL
notes: also called chimeric BDI-9E8-E7
huPDGF-BB Neutralization Potency (nM) in NIH-3T3 Cells [1]: 0.058 nM
ratPDGF-BB Neutralization Potency (nM) in NIH-3T3 Cells (recombinant rat PDGF-BB): 0.075 nM
IC50 [2]: 0.791 nM
EC50 [3]: 0.38 nM
Kd [4]: ≤ 0.012 nM
koff [4]: 0.00012 s⁻¹
kon [4]: ≥ 1e+07 M⁻¹ s⁻¹

B2: chBDI-5H1 (antibody, human IgG1, V domains shown)
VH: QVTLKESGPGILQPSQTLSLTCTFSGFSLSTFGMGVGWIRQPSGKGLEWLANIWWDDDKYYNPSLKNRLTISKDTSNSQAFLEITNVDTADTATYYCARISTGISSYYVMDAWGQGASVTVSS
VL: B1 VL with S32T, A51G, D52N, I96S, N97D
notes: also called chimeric BDI-5H1-F6
huPDGF-BB Neutralization Potency (nM) in NIH-3T3 Cells [1]: 0.275 nM
ratPDGF-BB Neutralization Potency (nM) in NIH-3T3 Cells (recombinant rat PDGF-BB): 0.17 nM
IC50 [2]: 1.04 nM
EC50 [3]: 0.12 nM
Kd [4]: ≤ 0.015 nM
koff [4]: 0.00015 s⁻¹
kon [4]: ≥ 1e+07 M⁻¹ s⁻¹

B3: CODV022 (PR-1577056), anti-human VEGF-A/anti-human PDGF-BB cross-over DVD-Ig molecule (bispecific antibody, human IgG1, kappa, L234A L235A)
heavy: EVQLVQSGSELKKPGASVKVSCKASGYTFTNYGMYWVRQAPGQGLEWMGWINTETGKPTYADDFKGRFVFSLDTSVSTAYLQISSLKAEDTAVYYCARTNYYYRSYIFYFDYWGQGTMVTVSSGGGGSGGGEFVLTQSPGTLSLSPGERATLSCERSSGDIGESYVSWYQQKPGQAPRLVIYADDQRPSGIPDRFSGSGSGTDFTLTISRLEPEDFAVYYCQSYDINIDIVFGGGTKVEIKGGGSGASTKGPSVFPLAPSSKSTSGGTAALGCLVKDYFPEPVTVSWNSGALTSGVHTFPAVLQSSGLYSLSSVVTVPSSSLGTQTYICNVNHKPSNTKVDKKVEPKSCDKTHTCPPCPAPEAAGGPSVFLFPPKPKDTLMISRTPEVTCVVVDVSHEDPEVKFNWYVDGVEVHNAKTKPREEQYNSTYRVVSVLTVLHQDWLNGKEYKCKVSNKALPAPIEKTISKAKGQPREPQVYTLPPSREEMTKNQVSLTCLVKGFYPSDIAVEWESNGQPENNYKTTPPVLDSDGSFFLYSKLTVDKSRWQQGNVFSCSVMHEALHNAYTQKSLSLSPGK
light: EVTLRESGPALVKPTQTLTLTCTFSGFSLSTYGMGVGWIRQPPGKALEWLANIWWDDDKYYNPSLKNRLTISKDTSKNQVVLTMTNMDPVDTATYYCARIESIGTTYSFDYWGQGTMVTVSSGGGGSDTVLTQSPATLSLSPGERATLSCRASESVSTHMHWYQQKPGQAPRLLIYGASNLESGVPARFSGSGSGTDFTLTISSLEPEDFAVYFCQQSWNDPFTFGQGTKLEIKGGSRTVAAPSVFIFPPSDEQLKSGTASVVCLLNNFYPREAKVQWKVDNALQSGNSQESVTEQDSKDSTYSLSSTLTLSKADYEKHKVYACEVTHQGLSSPVTKSFNRGEC
notes: Cross-over DVD-Ig: the variable domains of the 4G8.3 (VEGF) and 9E8.4E (PDGF) sites are spread over both chains; also called CO-DVD-Ig
Kd [5]: 0.013 nM
kon [5]: 4.5e+06 M⁻¹ s⁻¹
Kd [6]: 0.0042 nM
kon [6]: 3.2e+07 M⁻¹ s⁻¹

B4: hBDI-9E8.11 (antibody, V domains shown)
VH: EVQLVESGGGLVQPGGSLRLSCAFSGFSLSTYGMGVGWIRQAPGKGLEWLANIWWDDDKYYNPSLKNRLTISKDTSKNQAYLQINSLRAEDTAVYYCARIESIGTTYSFDYWGQGTLVTVSS
VL: DFVLTQSPDSLAVSLGERATINCERSSGDIGDSYVSWYQQKPGQPPKNVIYADDQRPSGVPDRFSGSGSGNSASLTISSLQAEDVAVYFCQSYDINIDIVFGGGTKVEIK
notes: Humanized IgG from pHybE expression vectors, made in HEK293 6E and protein A purified
hPDGF-BB IC50 (nM), hPDGF-BB-induced NIH-3T3 cell proliferation [7]: 0.309 nM
IC50 [8]: 1.73 nM

B5: hBDI-9E8.4 (antibody, V domains shown)
VH: EVTLRESGPALVKPTQTLTLTCTFSGFSLSTYGMGVGWIRQPPGKALEWLANIWWDDDKYYNPSLKNRLTISKDTSKNQVVLTMTNMDPVDTATYYCARIESIGTTYSFDYWGQGTMVTVSS
VL: EFVLTQSPGTLSLSPGERATLSCERSSGDIGDSYVSWYQQKPGQAPRLVIYADDQRPSGIPDRFSGSGSGTDFTLTISRLEPEDFAVYYCQSYDINIDIVFGGGTKVEIK
notes: Humanized IgG from pHybE expression vectors, made in HEK293 6E and protein A purified; also called h9E8.4
hPDGF-BB IC50 (nM), hPDGF-BB-induced NIH-3T3 cell proliferation [7]: 0.061 nM
IC50 [8]: 4.3 nM

B6: hBDE-3C9.1 (antibody, V domains shown)
VH: EVQLVESGGGLVQPGGSLRLSCAASGFTFSNYGMAWVRQAPGKGLEWVASITNSGGNTYYRDSVKGRFTISRDNAKNTQYLQMNSLRAEDTAVYFCARHTPGANYFDYWGQGTMVTVSS
VL: DIQMTQSPSSLSASVGDRVTITCQASQSIKNYIAWYQLKPGKAPRLLMRYTSTLESGTPSRFSGSGSGRDYTFTISSLQPEDIATYYCVQYANLYTFGGGTKVEIK
notes: Humanized anti-human PDGFR-B IgG from pHybE expression vectors
IC50 [9]: 0.217 nM

B7: hBDE-3C9.2 (antibody, V domains shown)
VH: B6 VH with T78S, Q79L, F95Y
VL: B6 VL with L38Q, M48I, T58V
notes: as for B6
IC50 [9]: 0.26 nM
